This data set deals with the molecule itself. As to the kind of experiment: cryo-EM structure.

B1: human CPEB3 residues 1-217 (prion-like domain 1 construct) (domain or fragment, UniProt Q8NE35 1-217, looked up)
chain: MQDDLLMDKSKTQPQPQQQQRQQQQPQPESSVSEAPSTPLSSETPKPEENSAVPALSPAAAPPAPNGPDKMQMESPLLPGLSFHQPPQQPPPPQEPAAPGASLSPSFGSTWSTGTTNAVEDSFFQGITPVNGTMLFQNFPHHVNPVFGGTFSPQIGLAQTQHHQQPPPPAPAPQPAQPAQPPQAQPPQQRRSPASPSQAPYAQRSAAAAYGHQPIMT
As to B1, the binding result is listed as “binds”.

Values taken from article PMC13344147 (Structure (London, England : 1993), 2025).
